The text below walks through data of paper PMC5513931.

This experiment concerns the target T1, protease-activated receptor 2 (rat (endogenous in isolated Sprague Dawley rat arteries)) (UniProt Q63645).
T1 sequence: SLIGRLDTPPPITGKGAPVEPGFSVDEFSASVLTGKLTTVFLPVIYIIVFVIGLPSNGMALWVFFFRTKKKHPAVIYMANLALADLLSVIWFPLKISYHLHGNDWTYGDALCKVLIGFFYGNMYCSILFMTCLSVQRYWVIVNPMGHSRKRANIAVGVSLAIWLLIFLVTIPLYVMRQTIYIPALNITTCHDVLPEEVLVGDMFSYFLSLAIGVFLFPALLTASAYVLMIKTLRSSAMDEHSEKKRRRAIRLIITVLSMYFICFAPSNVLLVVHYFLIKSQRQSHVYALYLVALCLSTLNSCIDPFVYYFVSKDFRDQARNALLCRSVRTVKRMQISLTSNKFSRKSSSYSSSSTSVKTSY

B1: PAR-2 peptide agonist SLIGRL (peptide)
peptide: SLIGRL
Take B1: the EC50 of vasodilatation to SLIGRL (10 nM-10 uM), wire myography, MRA pre-constricted with 1 uM phenylephrine, control was determined as 7.02 µM; the EC50 of vasodilatation to SLIGRL (100 nM-100 uM), wire myography, basilar artery pre-constricted with 1 uM 5-HT, control worked out at 9.65 µM; the EC50 of vasodilatation to SLIGRL, wire myography, MRA from heparin-treated rats with 0.1 mM L-NNA, control was 86.4 µM; the EC50 of vasodilatation to SLIGRL, wire myography, MRA from heparin-treated rats with 0.1 mM L-NNA, pre-incubated with 10 uM apixaban was 6.45 µM. This molecule also showed an EC50 of vasodilatation to SLIGRL, wire myography, MRA from heparin-treated rats, control of 1.04 µM; an EC50 of vasodilatation to SLIGRL, wire myography, MRA from heparin-treated rats, pre-incubated with 10 uM apixaban of 0.71 µM; an EC50 of vasodilatation to SLIGRL, wire myography, MRA pre-constricted with 1 uM phenylephrine, pre-incubated with 10 uM apixaban of 1.83 µM; an EC50 of vasodilatation to SLIGRL, wire myography, MRA with 0.1 mM L-NNA, control of 3.03 µM. In addition, the EC50 of vasodilatation to SLIGRL, wire myography, MRA with 0.1 mM L-NNA, pre-incubated with 10 uM apixaban came out at 2.27 µM; the EC50 of vasodilatation to SLIGRL, wire myography, basilar artery pre-constricted with 1 uM 5-HT, pre-incubated with 10 uM apixaban was 4.41 µM; the EC50 of vasodilatation to SLIGRL, wire myography, basilar artery with 0.1 mM L-NNA, control worked out at 34.1 µM; the EC50 of vasodilatation to SLIGRL, wire myography, basilar artery with 0.1 mM L-NNA, pre-incubated with 10 uM apixaban came to 20.3 µM.
